From patent US20240383983A1 (ABL BIO, published 2024)

Assays:
[1] = molecular target: T1, human B7-H4 expressed on cells (CHOK-1 B7-H4, SK-BR3, CAMA-1, MDA-MB-468, MX-1, OVCAR-3) (human, UniProt Q7Z7D3 25-282); test: FACS on CAMA-1 cells, FITC anti-human IgG1 detection; y axis 'Fold of induction'
T1 construct: whole, on cells; also called B7-H4 expressed cell line; B7-H4 positive cancer cell lines
T1 sequence (looked up): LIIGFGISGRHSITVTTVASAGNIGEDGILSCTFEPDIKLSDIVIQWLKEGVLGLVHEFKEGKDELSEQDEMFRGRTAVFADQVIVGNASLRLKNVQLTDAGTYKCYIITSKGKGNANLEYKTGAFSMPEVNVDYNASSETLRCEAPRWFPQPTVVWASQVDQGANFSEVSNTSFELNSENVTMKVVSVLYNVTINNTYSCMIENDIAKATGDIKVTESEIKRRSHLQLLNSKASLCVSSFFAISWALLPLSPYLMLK
Procedure: (§1) To evaluate the tumor antigen binding property, 16E3H3 M1 clone was analyzed for its binding to B7-H4-expressing mammalian cells by FACS. Briefly, B7-H4 positive cell (MX-1, CAMA-1, SK-BR3 and OVCAR-3) or B7-H4 negative cells (PANC-1) were incubated with M40413 antibody. After wash by FACS buffer (1% BSA in PBS), the FITC-anti-human IgG 1 antibody was added to each well and incubated at 4° C. for 45 min. The MFI of FITC was evaluated by FACS Calibur.

[2] = molecular target: T1, human B7-H4 expressed on cells (CHOK-1 …); test: FACS on SK-BR3 cells, FITC anti-human IgG1 detection; y axis 'Fold of induction'
Procedure: as §1

[3] = molecular target: T2, Fc fused human B7-H4 protein (human, UniProt Q7Z7D3 29-258, limits assumed); test: ELISA, Fc fused human B7-H4 coated at 1 µg/ml, anti-human Fab HRP
T2 construct: Coated on ELISA plates; not shown: Fc part
T2 sequence (looked up): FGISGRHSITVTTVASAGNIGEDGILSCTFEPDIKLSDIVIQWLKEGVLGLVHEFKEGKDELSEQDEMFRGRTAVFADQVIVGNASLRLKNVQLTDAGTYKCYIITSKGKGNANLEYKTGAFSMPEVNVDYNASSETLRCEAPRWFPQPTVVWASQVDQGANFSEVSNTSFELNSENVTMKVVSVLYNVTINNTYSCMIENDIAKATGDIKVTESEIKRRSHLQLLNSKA
Procedure: To evaluate the antigen binding activity of the humanized antibody, 16E3H3 M1 was subjected to ELISA. Briefly, ELISA plates were coated with Fc fused human B7-H4 protein at 1 μg/ml in PBS, 100 ul/well at 4° C. overnight, then blocked with 200 ul/well of 1% BSA in PBS at 37° C. Four fold dilutions of monoclonal antibody starting from 100 nM were added to each well and incubated for 1 hours at 37° C. The plates were washed with PBST (0.05% Tween 20 in PBS) and then incubated with HRP (Horse Radish Peroxidase) conjugated Anti-human Fab for 1 hr at 37° C. The plates were washed with PBST (Tween 20 0.05% in PBS) developed with TMB substrate and analyzed by spectrophotometer at OD 450 nm˜650 nm. As shown FIG. 2. 16E3H3 M1 bound to human B7-H4 with dose dependent manner.

- EC50 (read off the curve) [1]: ~5 nM
- EC50 (read off the curve) [2]: ~4 nM
- EC50 [3]: 0.079 nM
B1: 16E3H3 M1 monospecific antibody (humanized anti-B7-H4 IgG1) (antibody, V domains shown)
VH: QVQLVQSGAEVKKPGASVKVSCKASGYPFTTYGMNWVKQAPGQGLEWMGWIDTYSGVPTYADDFKGRVTMTRDTSISTAYMELSRLRSDDTAVYFCARRSFWYFDVWGAGTTVTVSS
VL: DVVMTQSPLSLPVTLGQPASISCRSSQSLVHSNANTYLHWYLQRPGQSPRLLIYKVSNRFSGVPDRFSGSGSGTDFTLKISRVEAEDVGVYFCSQSTHVPWTFGGGTKVEIKR
notes: Humanized 16E3H3 with G29A in CDR-L1 for PTM removal; also called M40413; 16E3H3 M1 clone
